Data published in patent US20200239573A1 (CRESCENDO BIOLOGICS, published 2020).

Key:
[1] = molecular target: T1, recombinant human PD-1 Fc chimera (human, UniProt Q15116 25-167); experiment: HTRF inhibition; strep-tagged PD-L1 vs PD-1-Fc
T1 construct: Bought protein; also called human PD-1-huFc; huPD-1-Fc; not shown: human Fc
Protocol: All samples and reagents were prepared in HTRF assay buffer containing PBS, 0.1% (w/v) BSA and 0.4M Potassium Fluoride. […] Total binding controls containing periplasmic extract sample buffer and non-specific binding controls containing excess untagged competitor were set up on each plate for data normalisation. Time-resolved fluorescent emission at 620 nm and 665 nm was measured following excitation at 337 nm on the BMG PHERAstar plate reader. Data was expressed as a % of the total binding control (% control) after subtraction of the background signal determined from the non-specific binding control wells.

[2] = molecular target: T2, human PD-1 expressed on cells (CHO human PD-1 cells) (human, UniProt Q15116 21-288); experiment: FMAT inhibition; 100 pM PD-L1-Fc on CHO human PD-1 cells
T2 construct: also called CHO TREX human PD-1 cell line; CHO PD-1
Protocol: All reagents and serially diluted VH were prepared in FMAT assay buffer. […] Plates were incubated for 2 hours at room temperature then fluorescence measured in the FL2 (502 nm-537 nm) and FL5 (677-800 nm) channels on the Mirrorball plate reader (TTP) following excitation at 488 nm and 640 nm. Data was expressed as a % of the total binding control (i.e. % control) after subtraction of the background signal determined from the non-specific binding control wells.

[3] = molecular target: T2, human PD-1 expressed on cells (CHO …); experiment: FMAT epitope competition on CHO human PD-1 cells; competitor 1 nM 1.1-Strep
Protocol: For the epitope competition assay reagents were prepared in FMAT assay buffer. […] Plates were incubated for a minimum of 1.5 hours at room temperature then fluorescence measured in the FL2 (502 nm-537 nm) and FL5 (677-800 nm) channels on the Mirrorball plate reader (TTP) following excitation at 488 nm and 640 nm. Data was expressed as a % of the total binding control (i.e. % control) after subtraction of the background signal determined from the non-specific binding control wells.

[4] = molecular target: T3, Strep tagged recombinant human PD-1 (human, UniProt Q15116 25-170, limits assumed); experiment: SPR Biacore T200, strep-tagged PD-1 amine-coupled, single cycle kinetics
T3 construct: the whole entry is named; also called strep tagged human PD-1; not shown: Strep tag
Protocol: Single cycle kinetics assays were used to study the interaction between human PD-1 with Humabody® on a Biacore T200 instrument (GE Healthcare). Strep tagged recombinant human PD-1 was amine coupled to one flow cell of a CM-5 chip to create a low density surface (14 RU) using standard Biacore reagents. For the reference flow cell, a blank immobilisation was carried out. A five-point, three-fold dilution series of each Humabody® was made with a top concentration of 25 nM. The binding kinetics were followed by flowing the Humabody® over the chip surface in HBS EP+ buffer at a flow rate of 30 μl/min. The contact time for each of the association steps was 180 seconds and the dissociation step was 3300 seconds. The data was fitted to a 1:1 binding model after double reference subtraction using the Biacore T200 Evaluation software.

T1 sequence (Q15116 25-167 limits assumed, change not shown): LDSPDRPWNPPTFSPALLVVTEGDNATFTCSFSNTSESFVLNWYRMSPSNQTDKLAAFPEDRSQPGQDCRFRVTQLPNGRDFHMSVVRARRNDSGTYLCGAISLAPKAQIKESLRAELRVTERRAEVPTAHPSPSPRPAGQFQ
T2 sequence (Q15116 21-288): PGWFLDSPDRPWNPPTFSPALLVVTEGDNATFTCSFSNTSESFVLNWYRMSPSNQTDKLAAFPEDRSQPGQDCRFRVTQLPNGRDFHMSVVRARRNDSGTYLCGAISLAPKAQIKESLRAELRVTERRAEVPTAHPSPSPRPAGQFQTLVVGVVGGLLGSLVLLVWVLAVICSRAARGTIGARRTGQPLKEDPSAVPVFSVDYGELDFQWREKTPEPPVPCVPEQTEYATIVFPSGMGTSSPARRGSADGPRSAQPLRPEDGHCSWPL
T3 sequence (Q15116 25-170 limits assumed): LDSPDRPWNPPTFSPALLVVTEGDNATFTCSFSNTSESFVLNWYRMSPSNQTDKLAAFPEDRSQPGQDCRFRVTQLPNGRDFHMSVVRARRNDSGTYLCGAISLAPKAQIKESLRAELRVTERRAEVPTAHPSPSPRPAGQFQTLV

Row | Binder | IC50 [1] [nM] | IC50 [2] [nM] | IC50 [3] [nM] | further results
1 | Humabody® 1.10 (VHH, human VH single domain antibody) VHH: QVQLVESGGGLVKPGGSLRLSCAASGFTFSDYTMSWMRQAPGKGLEWISYISLGGNTKYYTDSVKGRFTISRDNAKNSLYLQMNSLRADDTAVYYCAREAPLRLGESPHDAFDIWGQGTMVTVSS | 54.1 | – | – | –
2 | Humabody® 1.11 (VHH, human VH single domain antibody) VHH: EVQLLESGGGLVKPGGSLRLSCAASGFTFSDYDMTWIRQAPGKGQEWVSYISRGGSTKYYADSVKGRFTISRDNAKNSLYLQMNSLRAEDTAVYYCAREAPLRLGETPHDAFDIWGQGTMVTVSS | 5.16 | – | – | –
3 | Humabody® 1.14 (VHH, human VH single domain antibody) VHH: EVQLVESGGGLVQPGRSLRLSCAASGFTFSDYTMTWMRQAPGKGLEWVSYISTGGTIKYYTDSVKGRFTISRDNAKNSLYLQMNSLRADDTAVYYCAREAPLRLGESPHDAFDIWGQGTMVTVSS | 28.5 | – | – | –
4 | Humabody® 1.90 (VHH, human VH single domain antibody) VHH: EVQLVESGGGLVKPGGSLRLSCAASGFTFSDVSMTWMRQAPGKGLEWVSYISSGGGVKFYADSVKGRFTISRDNAKNSLYLQMNSLRAEDTAVYYCAREAPLRLGESPHDAFDISGQGTMVTVSS | – | 3 | 1.6 | –
5 | Humabody® 1.91 (VHH, human VH single domain antibody) VHH: EVQLVESGGGLVKPGGSLRLSCAASGFTFSDQSMTWMRQAPGKGLEWVSYISSGGGVKFYADSVKGRFTISRDNAKNSLYLQMNSLRAEDTAVYYCAREAPLRLGESPHDAFDISGQGTMVTVSS | – | 3.56 | 1.4 | –
6 | Humabody® 1.93 (VHH, human VH single domain antibody) VHH: EVQLVESGGGLVKPGGSLRLSCAASGFTFSDASMTWMRQAPGKGLEWVSYISSGGGVKFYADSVKGRFTISRDNAKNSLYLQMNSLRAEDTAVYYCAREAPLRLGESPHDAFDISGQGTMVTVSS | – | 2.12 | 1.5 | –
7 | Humabody® 1.95 (VHH, human VH single domain antibody) VHH: EVQLVESGGGLVKPGGSLRLSCAASGFTFSDGSMTWMRQAPGKGLEWVSYISSGGGVKFYADSVKGRFTISRDNAKNSLYLQMNSLRAEDTAVYYCAREAPLRLGESPHDAFDISGQGTMVTVSS | – | 3.59 | 2 | –
8 | Humabody® 1.97 (VHH, human VH single domain antibody) VHH: EVQLVESGGGLVKPGGSLRLSCAASGFTFSDISMTWMRQAPGKGLEWVSYISSGGGVKFYADSVKGRFTISRDNAKNSLYLQMNSLRAEDTAVYYCAREAPLRLGESPHDAFDISGQGTMVTVSS | – | 3.32 | 1.7 | –
9 | Humabody® 1.100 (VHH, human VH single domain antibody) VHH: EVQLVESGGGLVKPGGSLRLSCAASGFTFSDLSMTWMRQAPGKGLEWVSYISSGGGVKFYADSVKGRFTISRDNAKNSLYLQMNSLRAEDTAVYYCAREAPLRLGESPHDAFDISGQGTMVTVSS | – | 2.61 | 1.5 | –
10 | Humabody® 1.80 (VHH, human VH single domain antibody) VHH: EVQLVESGGGLVKPGGSLRLSCAASGFTFSDSSMTWMRQAPGKGLEWVSYISSGGGVKFYADSVKGRFTISRDNAKNSLYLQMNSLRAEDTAVYYCAREAPLRLGESPHDAFDISGQGTMVTVSS | – | 1.82 | – | Kd [4]: 0.0297 nM; koff [4]: 5.2e-05 s⁻¹; kon [4]: 1.76e+06 M⁻¹ s⁻¹
11 | Humabody® 1.12 (VHH, human VH single domain antibody) VHH: EVQLLESGGGVVKPGGSLRLSCAASGFTFSDYYMGWIRQAPGKGLEWISYISSSGSTIYYADSVKGRFTISRDNAKNSLYLQMNSLRAEDTAVYYCAREAPLRLGESPHDAFDIWGQGTMVTVSS | 4.18 | – | – | –
12 | Humabody® 1.15 (VHH, human VH single domain antibody) VHH: QVQLVESGGGLVKPGGSLRLSCAASGFTFSDNSMSWIRQAPGKGLEWVSYISSSGSTIYYADSVKGRFTISRDNAKNSLYLQMNTLRAEDTAVYYCAKEAPLRLGESPHDAFDIWGQGTMVTVSS | 3.78 | – | – | –
